Data on four molecules can be found in US12605469B2, “Tumor specific antibody conjugates and uses therefor” (The University of North Carolina at Charlotte, priority 2019, dated 2026).

In one data set the target is T1, KCM lysate (Homo sapiens, UniProt P15941).
T1 construct: expressed in transfected cells; host or cells: KCM, a primary mouse pancreatic adenocarcinoma line from P48-Cre x LSL-Kras G12D x human MUC1.Tg mice; whole-cell lysate at 10 ug/mL
As to the kind of experiment: sandwich ELISA of humanized TAB004 antibodies on KCM lysate. The note with it: compared with chimeric parental antibody. The class given is binding, mouse. As to the method: Antigen binding (KCM lysate) to the 9 humanized antibody combinations and the chimeric parental antibody were evaluated by sandwich ELISA. For this, ELISA plates were coated with hybridoma antibody (1 μg/mL) overnight at 4° C. in the dark and then blocked with 2% BSA for 2 hours at room temperature to reduce non-specific binding. KCM lysate (10 μg/mL) was then added and incubated for 2 hours at room temperature. Antibodies were diluted in 5-fold increments for a total of seven data points and were added to the ELISA wells for 2 hours at room temperature. The plate was washed with PBS three times, and then incubated with HRP conjugated goat anti-human IgG antibody for 2 hours. The plate was washed three times with PBS. TMB, the HRP substrate, was added to each well for color development for 5 minutes at room temperature. Equal amount of 1N HC1 stop solution was added to each well to terminate the reaction.
In general terms: ELISA stands for enzyme-linked immunosorbent assay.

The test system of a further data set is KCM tumor cells. As to the kind of experiment: NK cell specific lysis of tumor cells. The class given is cell-based, mouse. The note with it: various E:T ratios. An excerpt: FIGS. 4A and 4B are graphs showing that an exemplary antibody of the presently disclosed subject matter (TAB-004) enhanced the cytotoxicity of Natural Killer (NK) cells to kill target tumor cells.
(§1) The TAB-004 antibody alone or conjugated to CpG ODN bound to a tumor cell line (referred to herein as the “KCM” cell line; see FIG. 3) generated from the triple transgenic PDA.MUC1.Tg mice.

The next data set deals with KCM pancreatic cell line. As to the kind of experiment: binding to KCM pancreatic cell line. It counts as cell-based, mouse.
Description: FIG. 3 is a schematic (upper left panel) showing an approach for creating a triple transgenic mouse line that expresses the Cre recombinase throughout the pancreas, a mutated K-ras oncogene polypeptide, and a human MUC1 polypeptide. This mouse develops pancreatic adenocarcinoma, cells of which were used to generate the primary tumor cell line KCM (lower panel). The KCM cell line was used to test the binding of an exemplary antibody of the presently disclosed subject matter (denoted in the Figure as “TAB” and in the instant disclosure as “TAB-004”) either alone or conjugated to CpG oligodeoxynucleotides (CpG ODN).
as §1

Another data set has as its system KCM tumor. As to the kind of experiment: in vivo anti-tumor activity against established KCM tumor. On the set-up: species or system mouse. As to the method:
FIG. 5A is a line graph showing the measured tumor volumes (in mm measured by digital calipers) in mice treated with phosphate-buffered saline (PBS) alone (negative control; filled squares), CpG ODN alone (X's), the unconjugated TAB-004 antibody (open circles), or the TAB-004-CpG ODN conjugate (filled circles). FIG. 5B is a bar graph showing the changes in tumor volumes in mice at 19 and 27 days after the final treatment was administered. […] PBS alone (negative control; white bars); CpG ODN alone (hatched bars); unconjugated TAB-004 antibody (black bars); TAB-004-CpG ODN conjugate (cross-hatched bars). […] The treatment groups and the schedule and dose were as illustrated in FIGS. 5A and 5B. Briefly, 3×10^6 KCM tumor cells were administered subcutaneously into the flank region of mice (n=10 mice) at day 0. At days 4, 10, and 16, 50 μg of a TAB-004-CpG ODN conjugate were administered intratumorally (without adjuvant) to each mouse. The same amounts of antibody were administered to an antibody alone group (unconjugated TAB-004) for comparison. Mice were sacrificed at day 20 and tumors recovered.

Data set [1] is described as follows: physical properties of MSN materials (DLS, zeta-potential, TGA, TEM). It counts as physicochemical. An excerpt:
The MSN conjugates were characterized by dynamic light scattering (DLS), thermogravimetric analysis (TGA), and transmission electron microscopy (TEM). […] DLS results indicated slight aggregation. The surface charges were as expected during the different synthesis steps, with the final TAB-004-MSN neutral surface charge indicating successful functionalization of MSN. The PEG linker was quantified by TGA to be about 6-7% by weight.

T1 sequence (P15941 24-1255): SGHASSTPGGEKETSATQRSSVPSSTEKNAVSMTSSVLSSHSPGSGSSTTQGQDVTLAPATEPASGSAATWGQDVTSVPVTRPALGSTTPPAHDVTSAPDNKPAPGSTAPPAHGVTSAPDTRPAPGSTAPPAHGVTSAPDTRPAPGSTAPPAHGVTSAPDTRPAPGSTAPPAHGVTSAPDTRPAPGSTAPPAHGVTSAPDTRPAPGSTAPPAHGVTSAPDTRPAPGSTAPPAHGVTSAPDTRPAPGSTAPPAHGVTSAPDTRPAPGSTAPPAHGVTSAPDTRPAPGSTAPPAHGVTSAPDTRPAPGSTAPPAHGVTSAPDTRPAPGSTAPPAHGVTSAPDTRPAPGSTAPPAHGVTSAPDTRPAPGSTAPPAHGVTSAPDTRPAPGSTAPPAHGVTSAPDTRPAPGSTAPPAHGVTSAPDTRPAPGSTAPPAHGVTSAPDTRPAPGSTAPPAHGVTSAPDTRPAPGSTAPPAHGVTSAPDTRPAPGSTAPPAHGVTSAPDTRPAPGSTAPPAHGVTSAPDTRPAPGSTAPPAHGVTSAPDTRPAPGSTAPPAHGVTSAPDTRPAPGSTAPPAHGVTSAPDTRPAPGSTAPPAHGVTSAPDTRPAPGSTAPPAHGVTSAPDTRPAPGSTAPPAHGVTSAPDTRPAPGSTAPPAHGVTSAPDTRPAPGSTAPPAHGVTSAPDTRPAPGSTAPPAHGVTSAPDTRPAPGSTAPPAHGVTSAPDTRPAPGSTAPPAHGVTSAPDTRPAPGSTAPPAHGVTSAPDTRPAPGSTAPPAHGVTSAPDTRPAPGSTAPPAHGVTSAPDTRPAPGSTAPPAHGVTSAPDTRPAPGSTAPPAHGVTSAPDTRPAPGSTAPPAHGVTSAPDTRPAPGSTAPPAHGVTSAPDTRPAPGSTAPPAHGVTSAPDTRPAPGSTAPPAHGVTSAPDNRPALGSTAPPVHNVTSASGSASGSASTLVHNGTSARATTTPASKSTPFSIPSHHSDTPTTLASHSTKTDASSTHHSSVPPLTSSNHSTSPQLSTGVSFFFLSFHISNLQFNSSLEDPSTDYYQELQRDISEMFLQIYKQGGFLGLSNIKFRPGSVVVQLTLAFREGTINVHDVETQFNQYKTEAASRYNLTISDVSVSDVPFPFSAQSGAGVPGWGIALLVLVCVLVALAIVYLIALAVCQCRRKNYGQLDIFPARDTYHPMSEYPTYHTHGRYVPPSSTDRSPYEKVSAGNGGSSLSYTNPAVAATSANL

B1: Humanized HC3 + LC2: heavy chain H6247, light chain L6246 (antibody)
heavy: EVQLVQSGAEVKKPGASVKVSCKASGYTFTNYWMHWVRQAPGQGLEWMGYINPSSGYTQYNQKFQGWVTMTADTSISTAYMELSRLRSDDTAVYYCSTYYGDYLFPYWGQGTLVTVSSASTKGPSVFPLAPCSRSTSESTAALGCLVKDYFPEPVTVSWNSGALTSGVHTFPAVLQSSGLYSLSSVVTVPSSNFGTQTYTCNVDHKPSNTKVDKTVERKCCVECPPCPAPPVAGPSVFLFPPKPKDTLMISRTPEVTCVVVDVSHEDPEVQFNWYVDGVEVHNAKTKPREEQFNSTFRVVSVLTVVHQDWLNGKEYKCKVSNKGLPAPIEKTISKTKGQPREPQVYTLPPSREEMTKNQVSLTCLVKGFYPSDIAVEWESNGQPENNYKTTPPMLDSDGSFFLYSKLTVDKSRWQQGNVFSCSVMHEALHNHYTQKSLSLSPG
light: DVVMTQSPLSLPVTLGQPASISCRSSQDIVYGNGNTYLEWYQQRPGQSPRLLIYKVSNRFSGVPDRFSGSGSGTDFTLKISRVEAEDVGVYYCFQGSHVPYTFGQGTKLEIKRTVAAPSVFIFPPSDEQLKSGTASVVCLLNNFYPREAKVQWKVDNALQSGNSQESVTEQDSKDSTYSLSSTLTLSKADYEKHKVYACEVTHQGLSSPVTKSFNRGEC
Regarding B1, the “binding by ELISA” value with KCM lysate is given as “retained binding similar to the chimeric parental antibody”.

B2: Humanized HC3 + LC3: heavy chain H6247, light chain L6247 (antibody)
heavy: EVQLVQSGAEVKKPGASVKVSCKASGYTFTNYWMHWVRQAPGQGLEWMGYINPSSGYTQYNQKFQGWVTMTADTSISTAYMELSRLRSDDTAVYYCSTYYGDYLFPYWGQGTLVTVSSASTKGPSVFPLAPCSRSTSESTAALGCLVKDYFPEPVTVSWNSGALTSGVHTFPAVLQSSGLYSLSSVVTVPSSNFGTQTYTCNVDHKPSNTKVDKTVERKCCVECPPCPAPPVAGPSVFLFPPKPKDTLMISRTPEVTCVVVDVSHEDPEVQFNWYVDGVEVHNAKTKPREEQFNSTFRVVSVLTVVHQDWLNGKEYKCKVSNKGLPAPIEKTISKTKGQPREPQVYTLPPSREEMTKNQVSLTCLVKGFYPSDIAVEWESNGQPENNYKTTPPMLDSDGSFFLYSKLTVDKSRWQQGNVFSCSVMHEALHNHYTQKSLSLSPG
light: DIVLTQSPLSLPVTLGQPASISCRSSQDIVYGNGNTYLEWYQQRPGQSPRLLIYKVSNRFSGVPDSFSGSGSGTDFTLTISRVEAEDVGIYYCFQGSHVPYTFGEGTKLEIKRTVAAPSVFIFPPSDEQLKSGTASVVCLLNNFYPREAKVQWKVDNALQSGNSQESVTEQDSKDSTYSLSSTLTLSKADYEKHKVYACEVTHQGLSSPVTKSFNRGEC
For B2, the “binding by ELISA” value in the data set with KCM lysate was “retained binding similar to the chimeric parental antibody”.

B3: TAB-004-CpG ODN conjugate (conjugate)
VH: EVQLQQSGGERATPGASVKMSCKTSGYTFTNYWMHWVKQRPGQGLEWIGYINPSSGYTQYNQKFKDKATLTADKSSSTAYIQLSSLTSEDSAVYYCSTYYGDYLFPYWGQGTLVTVSA
VL: DVLMTQTPLSLPVSLGDQASISCRSSQDIVYGNGNTYLEWYLQKPGQSPKLLIYKVSNRFSGVPDRFSGSGSGTDFTLKISRVEAEDLGVYYCFQGSHVPYTFGGGTKLEIKR
For B3, in the data set on KCM tumor cells, the “specific lysis of tumor cells by NK cells” value is “further enhanced specific lysis of tumor cells”. In the data set on KCM pancreatic cell line, the “binding to KCM cell line” value was “bound to the KCM pancreatic cell line with equal affinity”. For the same molecule, in the data set with KCM tumor (50 μg intratumorally at days 4, 10, and 16), the “growth of established tumor” value was “completely stopped the growth of an established tumor leading to complete eradication”. The “tumor volumes at 19 and 27 days post-treatment” value in the data set on KCM tumor (compared to control mice) is recorded as “had not increased”. For the same molecule, the “tumor regrowth after cessation of treatment” value in the data set on KCM tumor (mouse, in vivo) is reported as “did not grow back the tumors”.

B4: TAB-004-MSN (conjugate)
VH: EVQLQQSGGERATPGASVKMSCKTSGYTFTNYWMHWVKQRPGQGLEWIGYINPSSGYTQYNQKFKDKATLTADKSSSTAYIQLSSLTSEDSAVYYCSTYYGDYLFPYWGQGTLVTVSA
VL: DVLMTQTPLSLPVSLGDQASISCRSSQDIVYGNGNTYLEWYLQKPGQSPKLLIYKVSNRFSGVPDRFSGSGSGTDFTLKISRVEAEDLGVYYCFQGSHVPYTFGGGTKLEIKR
Molecule B4 gave a PDI in data set [1] of 0.35. In addition, in data set [1] (determined in 1 mM PBS, pH 7.4), the “Size (nm)” value is given as 342.0 nm and the “Zeta-potential (mV)” value was −5.6 ± 0.8 mV.
